Results on five molecules are retold here after patent US7022818 (Janssen / Centocor, dated 2006).

T1: human GFRα-2-IgGFc fusion protein (human, UniProt O00451 20-431)
T1 construct: range 20-431; not shown: 243 amino acid residue COOH-terminal human IgG1-Fc fusion domain from vector Signal pIg plus (R&D Systems); exact limits
T1 sequence (looked up): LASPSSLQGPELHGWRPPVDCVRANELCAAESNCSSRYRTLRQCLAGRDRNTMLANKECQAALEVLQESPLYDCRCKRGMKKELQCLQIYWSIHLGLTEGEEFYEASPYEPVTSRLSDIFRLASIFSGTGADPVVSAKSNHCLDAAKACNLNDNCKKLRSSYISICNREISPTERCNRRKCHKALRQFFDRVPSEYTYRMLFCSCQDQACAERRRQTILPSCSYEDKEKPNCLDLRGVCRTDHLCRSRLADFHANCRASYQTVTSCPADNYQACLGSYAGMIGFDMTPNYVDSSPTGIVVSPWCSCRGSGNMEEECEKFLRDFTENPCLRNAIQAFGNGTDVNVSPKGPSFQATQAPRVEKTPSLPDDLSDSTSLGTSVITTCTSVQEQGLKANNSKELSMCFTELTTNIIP

B1: recombinant human GDNF (ligand, UniProt P39905 78-211, looked up)
chain: SPDKQMAVLPRRERNRQAAAANPENSRGKGRRGQRGKNRGCVLTAIHLNVTDLGLGYETKEELIFRYCSGSCDAAETTYDKILKNLSRNRRLVSDKVGQACCRPIAFDDDLSFLDDNLVYHILRKHSAKRCGCI
notes: Immobilised on a CM5 chip by amine coupling; also called glial cell-line derived neurotrophic factor
B2: NH2-terminally 6His-tagged recombinant human neurturin (ligand)
chain: HHHHHHARLGARPCGLRELEVRVSELGLGYASDETVLFRYCAGACEAAARVYDLGLRRLRQRRRLRRERVRAQPCCRPTAYEDEVSFLDAHSRYHTVHELSARECACV
notes: Immobilised on a CM5 chip by amine coupling; also called NTN
B3: NH2-terminally 6His-tagged recombinant rat persephin (ligand)
chain: HHHHHHALPGLCRLWSLTLPVAELGLGYASEEKIIFRYCAGSCPQEVRTQHSLVLARLRGQGRAHGRPCCQPTSYADVTFLDDHHHWQQLPQLSAAACGCGG
notes: Immobilised on a CM5 chip by amine coupling; Produced as described in Creedon et al., 1997; also called PSP; rat PSP
B4: NH2-terminally 6His-tagged recombinant human enovin/artemin (ligand)
chain: HHHHHHAGGPGSRARAAGARGCRLRSQLVPVRALGLGHRSDELVRFRFCSGSCRRARSPHDLSLASLLGAGALRPPPGSRPVSQPCCRPTRYEAVSFMDVNSTWRTVDRLSATACGCLG
notes: Immobilised on a CM5 chip by amine coupling; also called EVN/ART; EVN/ARTN
B5: rat GFRα-4 variant A-IgGFc fusion protein (Fc fusion)
chain: ASSTEGNRCVEAAEACTADEQCQQLRSEYVAQCLGRAGWRGPGSCVRSRCRRALRRFFARGPPALTHALLFCGCEGPACAERRRQTFAPACAFSGPQLAPPSCLKPLDRCERSRRCRPRLFAFQASCAPAPGSRDGCPEEGGPRCLRAYAGLVGTVVTPNYLDNVSARVAPWCGCEASGNRREECEAFRKLFTRNPCLDGAIQAFDSSQPSVLQDQWNPYQNAG
notes: also called rat GFRα-4-IgGFc; rat GFRα4-IgGFc; not shown: The 243-residue COOH-terminal human IgG1-Fc fusion domain from the vector Signal pIg plus (R&D Systems)

Assay [1] has as its target B5. Briefly: SPR (BIACORE 3000), ligand immobilised, GFRα-IgGFc in solution. As for the experimental part: (§1) Bound protein was eluted with 0.1 M Na-citrate, pH 3.0 and collected into 1 M Tris buffer, pH 8.4 (dilution ratio 1:6). Protein concentration was estimated by absorbance at 280 nm using an extinction coefficient of 1.5. Surface plasmon resonance (SPR) U.S. Ser. No. 10/019,337, filed Dec. 19, 2001 experiments were performed at 25° C. using a BIACORE 3000 instrument (Biacore AB, Uppsala, Sweden). Sensor chip CM5, the amine coupling kit and buffers used were also obtained from Biacore AB. Recombinant PSP, NTN, EVN/ART and GDNF were used as immobilised ligands. Recombinant human GDNF was obtained from R&D Systems Europe Ltd. (Abingdon, UK). NH2-terminally 6His-tagged (SEQ ID NO: 48) recombinant human NTN, rat PSP and human EVN/ART were produced in *E. coli* as described previously (Creedon et al., 1997). The carboxylated matrix of a CM5 sensor chip was first activated with a 1:1 mixture of 400 mM N-ethyl-N'-(3-dimethylaminopropyl)-carbodiimide and 100 mM N-hydroxy-succinimide for 10 min. Recombinant neurotrophic factors were applied onto the activated surface in 10 mM sodium acetate buffer, pH 4.5 at a flow rate of 5 μl/min. Unreacted carboxyl groups were blocked with 1 M ethanolamine-HCl. For binding experiments, soluble GFRα-IgGFc fusion proteins were superfused using the kinject program at 30 μl/min. Concentrations of GFRα-IgGFc used in kinetic experiments were between 1 and 100 nM in Hepes buffered saline (150 mM NaCl, 3.5 mM EDTA sodium salt, 0.005% polysorbate 20, 10 mM Hepes, pH 7.4). The association of the GFRα receptors to the immobilised ligands was monitored for 3 min and the dissociation for 1 min, followed by regeneration with 10 mM glycine buffer. Dissociation was initiated by superfusion with Hepes buffered saline. To improve the quality of sensor data, double referencing was used (Myszka, 1999). Data were analyzed using a global analysis with the BIACORE evaluation software (version 3.0.1). Global analysis calculates the association rate (k_a) and dissociation rate (k_d) simultaneously and the apparent equilibrium dissociation constant (K_D) is then calculated as k_d/k_a. A simple 1:1 Langmuir model was used to fit the data. Specific binding to PSP could be detected with both rat and chicken GFRα-4-IgGFc fusion proteins.
Background: SPR reads the build-up and loss of mass on a sensor chip optically.

The target in assay [2] is T2, chicken GFRα-4-IgGFc fusion protein (chicken; human, UniProt P01857-1 99-330 = IgG part, limits assumed).
T2 construct: domain: human IgG1-Fc fusion domain; also called chicken GFR-4-IgGFc
T2 sequence (P01857 other isoform, or with tags, fused parts or gaps limits assumed): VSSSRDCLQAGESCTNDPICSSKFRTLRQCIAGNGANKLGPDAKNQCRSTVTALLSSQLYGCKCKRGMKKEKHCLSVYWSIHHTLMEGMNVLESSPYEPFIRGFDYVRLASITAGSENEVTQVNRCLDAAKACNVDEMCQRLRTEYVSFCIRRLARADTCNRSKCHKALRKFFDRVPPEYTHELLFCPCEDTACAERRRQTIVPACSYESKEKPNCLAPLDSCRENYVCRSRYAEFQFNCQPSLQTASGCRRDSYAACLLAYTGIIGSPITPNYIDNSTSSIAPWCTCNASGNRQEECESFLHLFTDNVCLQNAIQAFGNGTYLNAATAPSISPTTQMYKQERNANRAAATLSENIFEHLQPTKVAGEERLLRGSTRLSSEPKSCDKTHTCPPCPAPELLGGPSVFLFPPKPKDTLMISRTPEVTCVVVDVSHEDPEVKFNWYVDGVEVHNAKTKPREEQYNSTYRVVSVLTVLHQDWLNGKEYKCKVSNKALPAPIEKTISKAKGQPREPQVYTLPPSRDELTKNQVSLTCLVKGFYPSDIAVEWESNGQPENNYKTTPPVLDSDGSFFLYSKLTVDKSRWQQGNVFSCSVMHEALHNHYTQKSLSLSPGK
The description is as above. As for the experimental part:
as §1

The target of assay [3] is T1, human GFRα-2-IgGFc fusion protein. Put plainly: SPR (BIACORE 3000), NTN immobilised. As for the experimental part:
GFRα-IgGFc fusion proteins were purified from the medium of permanently or transiently transfected CHO cells by protein A chromatography. Bound protein was eluted with 0.1 M Na-citrate, pH 3.0 and collected into 1 M Tris buffer, pH 8.4 (dilution ratio 1:6). Protein concentration was estimated by absorbance at 280 nm using an extinction coefficient of 1.5. Surface plasmon resonance (SPR) U.S. Ser. No. 10/019,337, filed Dec. 19, 2001 experiments were performed at 25° C. using a BIACORE 3000 instrument (Biacore AB, Uppsala, Sweden). Sensor chip CM5, the amine coupling kit and buffers used were also obtained from Biacore AB. Recombinant PSP, NTN, EVN/ART and GDNF were used as immobilised ligands. Recombinant human GDNF was obtained from R&D Systems Europe Ltd. (Abingdon, UK). NH2-terminally 6His-tagged (SEQ ID NO: 48) recombinant human NTN, rat PSP and human EVN/ART were produced in *E. coli* as described previously (Creedon et al., 1997). […] The association of the GFRα receptors to the immobilised ligands was monitored for 3 min and the dissociation for 1 min, followed by regeneration with 10 mM glycine buffer. […] Data were analyzed using a global analysis with the BIACORE evaluation software (version 3.0.1). Global analysis calculates the association rate (k_a) and dissociation rate (k_d) simultaneously and the apparent equilibrium dissociation constant (K_D) is then calculated as k_d/k_a. […]

The target in assay [4] is B5. Put plainly: SPR (BIACORE 3000), persephin immobilised, GFRα-4-IgGFc in solution, 1:1 Langmuir global fit, n=3. On the procedure:
as §1

Assay [5] has as its target T2, chicken GFRα-4-IgGFc fusion protein. Described as above. On the procedure:
as §1

Assay [6] concerns the target B3. Briefly: SPR (BIACORE 3000), persephin immobilised. As for the experimental part: Bound protein was eluted with 0.1 M Na-citrate, pH 3.0 and collected into 1 M Tris buffer, pH 8.4 (dilution ratio 1:6). Protein concentration was estimated by absorbance at 280 nm using an extinction coefficient of 1.5. Surface plasmon resonance (SPR) U.S. Ser. No. 10/019,337, filed Dec. 19, 2001 experiments were performed at 25° C. using a BIACORE 3000 instrument (Biacore AB, Uppsala, Sweden). Sensor chip CM5, the amine coupling kit and buffers used were also obtained from Biacore AB. Recombinant PSP, NTN, EVN/ART and GDNF were used as immobilised ligands. Recombinant human GDNF was obtained from R&D Systems Europe Ltd. (Abingdon, UK). NH2-terminally 6His-tagged (SEQ ID NO: 48) recombinant human NTN, rat PSP and human EVN/ART were produced in *E. coli* as described previously (Creedon et al., 1997). […] The association of the GFRα receptors to the immobilised ligands was monitored for 3 min and the dissociation for 1 min, followed by regeneration with 10 mM glycine buffer. […] Data were analyzed using a global analysis with the BIACORE evaluation software (version 3.0.1). Global analysis calculates the association rate (k_a) and dissociation rate (k_d) simultaneously and the apparent equilibrium dissociation constant (K_D) is then calculated as k_d/k_a. […] Specific binding to PSP could be detected with both rat and chicken GFRα-4-IgGFc fusion proteins.

Take B1: the binding result in assay [1] and in assay [2] was “no binding” throughout.
For the molecule B2, the binding result in assay [1] is listed as “no binding”; in assay [2] it was “no binding”; in assay [3] it was “binds”.
As for B3, in assay [4], the Kd (as a rule, a measure of binding affinity in units of concentration) came to 5.9 nM; the dissociation rate constant (koff) (usually the first-order rate constant of dissociation) was determined as 0.0012 s⁻¹; the kon – broadly, a measure of how fast the partners come together – was ~270000 M⁻¹ s⁻¹. Also, in assay [5], the equilibrium dissociation constant (Kd) was 5.4 nM, the koff turned out to be 0.00088 s⁻¹ and the kon was ~230000 M⁻¹ s⁻¹.
With B4, the binding result in assay [1] and in assay [2] was “no binding” in each case.
With B5, the “fold lower binding level than chicken GFRα-4-IgGFc” value in assay [6] was ~20 fold.
